We go through 29 molecules from paper PMC9352680, “A comprehensive thermodynamic model for RNA binding by the Saccharomyces cerevisiae Pumilio protein PUF4”.

T1: PUF4 RNA-binding domain (Saccharomyces cerevisiae, UniProt P25339 537-888)
T1 sequence: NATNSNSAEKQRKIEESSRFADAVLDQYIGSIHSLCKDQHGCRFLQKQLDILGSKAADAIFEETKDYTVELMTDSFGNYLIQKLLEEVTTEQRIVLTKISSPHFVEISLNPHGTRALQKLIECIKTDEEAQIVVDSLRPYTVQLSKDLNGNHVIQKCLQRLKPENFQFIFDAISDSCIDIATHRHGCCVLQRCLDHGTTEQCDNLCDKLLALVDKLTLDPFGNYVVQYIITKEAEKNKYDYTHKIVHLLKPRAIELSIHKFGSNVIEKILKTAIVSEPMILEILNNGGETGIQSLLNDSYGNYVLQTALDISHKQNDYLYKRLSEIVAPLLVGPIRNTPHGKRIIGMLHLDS

B1: Ic_S1_P5E.1_K5.1_C5.1_H5.1_A5.1_[T6G]_F5.1_[T8C]_[T9C]_T5.1 (ssRNA)
RNA: UCUCUUUGUAUGACCAUCUCUU
B2: Ic_S1_P5E.1_K5.1_C5.1_H5.1_A5.1_[T5C]_[T6C]_[A7G]_F5.1_[T8G]_[T9C]_[A10C]_T5.1 (ssRNA)
RNA: UCUCUUUGUACCGGCCUCUCUU
B3: Ic_S1_P5E.1_K5.1_C5.1_H5.1_A5.1_[T5A]_[T6C]_[A7C]_F5.1_[T8C]_[T9A]_T5.1 (ssRNA)
RNA: UCUCUUUGUAACCCAAUCUCUU
B4: Ib_S1_P3E.1_K3.1_C3.1_H3.1_[T1A]_[A4G]_A3.1_F3.1_T3.1 (ssRNA)
RNA: UCUCUUAGUGUAUAUCUCUU
B5: Ic_S1_P5E.1_K5.1_C5.1_H5.1_A5.1_[T5C]_[T6C]_F5.1_[A10T]_T5.1 (ssRNA)
RNA: UCUCUUUGUACCAUUUUCUCUU
B6: Ic_S1_P5E.1_K5.1_C5.1_H5.1_A5.1_[T5A]_[A7G]_F5.1_[T8G]_T5.1 (ssRNA)
RNA: UCUCUUUGUAAUGGUAUCUCUU
B7: Ic_S1_P5E.1_K5.1_C5.1_H5.1_A5.1_[T5A]_[T6A]_[A7C]_F5.1_[A10T]_T5.1 (ssRNA)
RNA: UCUCUUUGUAAACUUUUCUCUU
B8: Ib_S1_P3E.1_K3.1_C3.1_H3.1_[T1G]_[A4C]_A3.1_F3.1_T3.1 (ssRNA)
RNA: UCUCUUGGUCUAUAUCUCUU
B9: Ic_S1_P5E.1_K5.1_C5.1_H5.1_A5.1_[T5C]_[T6C]_[A7C]_F5.1_[T8G]_[T9A]_[A10T]_T5.1 (ssRNA)
RNA: UCUCUUUGUACCCGAUUCUCUU
B10: Ic_S1_P5E.1_K5.1_C5.1_H5.1_A5.1_[T6G]_[A7C]_F5.1_[T8A]_T5.1 (ssRNA)
RNA: UCUCUUUGUAUGCAUAUCUCUU
B11: Ic_S1_P5E.1_K5.1_C5.1_H5.1_A5.1_[T5C]_[T6C]_F5.1_[T9C]_[A10T]_T5.1 (ssRNA)
RNA: UCUCUUUGUACCAUCUUCUCUU
B12: Ic_S1_P5E.1_K5.1_C5.1_H5.1_A5.1_[T5G]_[A7C]_F5.1_[T9A]_T5.1 (ssRNA)
RNA: UCUCUUUGUAGUCUAAUCUCUU
B13: Ic_S1_P5E.1_K5.1_C5.1_H5.1_A5.1_[T5A]_[T6A]_[A7T]_F5.1_[T8A]_[T9A]_[A10C]_T5.1 (ssRNA)
RNA: UCUCUUUGUAAAUAACUCUCUU
B14: Ic_S1_P5E.1_K5.1_C5.1_H5.1_A5.1_[T5A]_[T6C]_[A7C]_F5.1_[T8C]_[T9A]_[A10T]_T5.1 (ssRNA)
RNA: UCUCUUUGUAACCCAUUCUCUU
B15: Ic_S1_P5E.1_K5.1_C5.1_H5.1_A5.1_[T6A]_[A7C]_F5.1_[T9A]_[A10G]_T5.1 (ssRNA)
RNA: UCUCUUUGUAUACUAGUCUCUU
B16: Ic_S1_P5E.1_K5.1_C5.1_H5.1_A5.1_[T5A]_[T6C]_[A7G]_F5.1_[T8G]_[A10C]_T5.1 (ssRNA)
RNA: UCUCUUUGUAACGGUCUCUCUU
B17: Ic_S1_P5E.1_K5.1_C5.1_H5.1_A5.1_[T5C]_[T6C]_F5.1_[T8A]_[T9A]_[A10C]_T5.1 (ssRNA)
RNA: UCUCUUUGUACCAAACUCUCUU
B18: Ic_S1_P5E.1_K5.1_C5.1_H5.1_A5.1_[T5C]_[T6C]_F5.1_[T8G]_[A10G]_T5.1 (ssRNA)
RNA: UCUCUUUGUACCAGUGUCUCUU
B19: Ic_S1_P5E.1_K5.1_C5.1_H5.1_A5.1_[T5A]_[T6C]_[A7T]_F5.1_[T8C]_[T9G]_[A10G]_T5.1 (ssRNA)
RNA: UCUCUUUGUAACUCGGUCUCUU
B20: Ic_S1_P5E.1_K5.1_C5.1_H5.1_A5.1_[T5A]_[T6A]_[A7T]_F5.1_[A10T]_T5.1 (ssRNA)
RNA: UCUCUUUGUAAAUUUUUCUCUU
B21: Ic_S1_P5E.1_K5.1_C5.1_H5.1_A5.1_[T5C]_[T6C]_F5.1_[T8G]_[T9C]_[A10T]_T5.1 (ssRNA)
RNA: UCUCUUUGUACCAGCUUCUCUU
B22: Ic_S1_P5E.1_K5.1_C5.1_H5.1_A5.1_[T5A]_[T6A]_[A7C]_F5.1_[T9A]_[A10T]_T5.1 (ssRNA)
RNA: UCUCUUUGUAAACUAUUCUCUU
B23: Ic_S1_P5E.1_K5.1_C5.1_H5.1_A5.1_[T6G]_[A7G]_F5.1_[A10T]_T5.1 (ssRNA)
RNA: UCUCUUUGUAUGGUUUUCUCUU
B24: Ic_S1_P5E.1_K5.1_C5.1_H5.1_A5.1_[A7T]_F5.1_[T8G]_[T9C]_[A10C]_T5.1 (ssRNA)
RNA: UCUCUUUGUAUUUGCCUCUCUU
B25: Ib_S1_P3E.1_K3.1_C3.1_H3.1_[G2C]_[T3C]_A3.1_F3.1_T3.1 (ssRNA)
RNA: UCUCUUUCCAUAUAUCUCUU
B26: Ic_S1_P5E.1_K5.1_C5.1_H5.1_A5.1_[T6G]_[A7T]_F5.1_[T8A]_[T9C]_[A10T]_T5.1 (ssRNA)
RNA: UCUCUUUGUAUGUACUUCUCUU
B27: Ib_S1_P3E.1_K3.1_C3.1_H3.1_[G2C]_[T3G]_A3.1_F3.1_T3.1 (ssRNA)
RNA: UCUCUUUCGAUAUAUCUCUU
B28: Ic_S1_P5E.1_K5.1_C5.1_H5.1_A5.1_[T5A]_[T6G]_[A7T]_F5.1_[T8A]_[T9A]_[A10C]_T5.1 (ssRNA)
RNA: UCUCUUUGUAAGUAACUCUCUU
B29: Ic_S1_P5E.1_K5.1_C5.1_H5.1_A5.1_[T5A]_[T6A]_F5.1_[T8C]_[T9G]_[A10G]_T5.1 (ssRNA)
RNA: UCUCUUUGUAAAACGGUCUCUU

The data set has as its target T1, PUF4 RNA-binding domain. Description: Mg; RNA-MaP; 20 mM Na-HEPES pH 7.4, 30 mM KOAc, 0.75 mM MgCl2, 0.1% Tween-20, 5% glycerol, 0.1 mg/mL BSA, 2 mM DTT; 25 C; 0.0125-409.6 nM protein. The note with it: tags: N-His6-TEV cleaved; C-SNAP kept, Cy3B-labelled; label: tethered on chip by stalled RNA polymerase.
Consider B1, for which the Kd amounted to 1110 nM.

The molecule B2 had a Kd of over 2300 nM.

B3 came in with a Kd of 1740 nM. In other words, the single-digit micromolar range.

As to B4, the Kd came out at 51.9 nM.

Molecule B5 registered an equilibrium dissociation constant (Kd) of 7.08 nM. Compared with the last molecule, the Kd is about 7.3-fold lower.

Regarding B6, the Kd was 45.1 nM.

Consider B7, for which the Kd worked out at 37.5 nM.

Regarding B8, the Kd was over 2300 nM.

Regarding B9, the dissociation constant (Kd) worked out at 1050 nM.

Take B10: the affinity, expressed as Kd, was 36 nM.

Turning to B11, the Kd came to 28 nM.

In turn, B12 showed a Kd of 36 nM.

B13 returned a Kd of 31.1 nM. The Kd values of the last two molecules are within 1.5-fold of each other.

In the case of B14, the Kd was 711 nM.

Consider B15, for which the Kd is 0.331 nM.

With B16, the Kd was over 2300 nM.

In the case of B17, the affinity, expressed as Kd, was 68.1 nM.

Consider B18, for which the Kd came out at 470 nM. This Kd lies about 6.9-fold higher than the previous one.

The molecule B19 had a Kd of over 2300 nM.

The molecule B20 displayed a Kd of 22.4 nM. This lies in the double-digit nanomolar range.

Molecule B21 showed a Kd of 747 nM. This Kd is about 33-fold higher than that of the molecule before.

Take B22: binding was put at a Kd of 2.36 nM.

B23 gave a Kd of 159 nM.

The molecule B24 returned a Kd of 568 nM.

With B25, the Kd is over 2300 nM.

B26: the Kd turned out to be 64.7 nM.

The molecule B27 returned a Kd of over 2300 nM.

B28 registered a Kd of over 2300 nM.

In turn, B29 displayed a Kd of 625 nM.

The Kd is the equilibrium constant for the complex coming apart.
